From paper PMC7260205, “Steric occlusion regulates proximal interactions of acyl carrier protein domain in fungal fatty acid synthase” (Communications Biology, 2020) come the findings set out here.

The data set deals with the molecule itself. The data set can be described thus: cryo-EM structure; FAS1-His6 and FAS2 co-expressed and purified as one complex; 1-2 mg/ml in TBS (50 mM Tris pH 7.4, 150 mM NaCl) on holey gold grids; WT apo or with acetyl-CoA, malonyl-CoA and NADPH; mutants with substrates; D3 symmetrised maps; for H1564A and H740A also symmetry expansion, signal subtraction and focused classification.

B1: S. cerevisiae fatty acid synthase FAS2 polypeptide (α-chain), wild type (enzyme)
chain: MKPEVEQELAHILLTELLAYQFASPVRWIETQDVFLKDFNTERVVEIGPSPTLAGMAQRTLKNKYESYDAALSLHREILCYSKDAKEIYYTPDPSELAAKEEPAKEEAPAPTPAASAPAPAAAAPAPVAAAAPAAAAAEIADEPVKASLLLHVLVAHKLKKSLDSIPMSKTIKDLVGGKSTVQNEILGDLGKEFGTTPEKPEETPLEELAETFQDTFSGALGKQSSSLLSRLISSKMPGGFTITVARKYLQTRWGLPSGRQDGVLLVALSNEPAARLGSEADAKAFLDSMAQKYASIVGVDLSSAASASGAAGAGAAAGAAMIDAGALEEITKDHKVLARQQLQVLARYLKMDLDNGERKFLKEKDTVAELQAQLDYLNAELGEFFVNGVATSFSRKKARTFDSSWNWAKQSLLSLYFEIIHGVLKNVDREVVSEAINIMNRSNDALIKFMEYHISNTDETKGENYQLVKTLGEQLIENCKQVLDVDPVYKDVAKPTGPKTAIDKNGNITYSEEPREKVRKLSQYVQEMALGGPITKESQPTIEEDLTRVYKAISAQADKQDISSSTRVEFEKLYSDLMKFLESSKEIDPSQTTQLAGMDVEDALDKDSTKEVASLPNKSTISKTVSSTIPRETIPFLHLRKKTPAGDWKYDRQLSSLFLDGLEKAAFNGVTFKDKYVLITGAGKGSIGAEVLQGLLQGGAKVVVTTSRFSKQVTDYYQSIYAKYGAKGSTLIVVPFNQGSKQDVEALIEFIYDTEKNGGLGWDLDAIIPFAAIPEQGIELEHIDSKSEFAHRIMLTNILRMMGCVKKQKSARGIETRPAQVILPMSPNHGTFGGDGMYSESKLSLETLFNRWHSESWANQLTVCGAIIGWTRGTGLMSANNIIAEGIEKMGVRTFSQKEMAFNLLGLLTPEVVELCQKSPVMADLNGGLQFVPELKEFTAKLRKELVETSEVRKAVSIETALEHKVVNGNSADAAYAQVEIQPRANIQLDFPELKPYKQVKQIAPAELEGLLDLERVIVVTGFAEVGPWGSARTRWEMEAFGEFSLEGCVEMAWIMGFISYHNGNLKGRPYTGWVDSKTKEPVDDKDVKAKYETSILEHSGIRLIEPELFNGYNPEKKEMIQEVIVEEDLEPFEASKETAEQFKHQHGDKVDIFEIPETGEYSVKLLKGATLYIPKALRFDRLVAGQIPTGWNAKTYGISDDIISQVDPITLFVLVSVVEAFIASGITDPYEMYKYVHVSEVGNCSGSGMGGVSALRGMFKDRFKDEPVQNDILQESFINTMSAWVNMLLISSSGPIKTPVGACATSVESVDIGVETILSGKARICIVGGYDDFQEEGSFEFGNMKATSNTLEEFEHGRTPAEMSRPATTTRNGFMEAQGAGIQIIMQADLALKMGVPIYGIVAMAATATDKIGRSVPAPGKGILTTAREHHSSVKYASPNLNMKYRKRQLVTREAQIKDWVENELEALKLEAEEIPSEDQNEFLLERTREIHNEAESQLRAAQQQWGNDFYKRDPRIAPLRGALATYGLTIDDLGVASFHGTSTKANDKNESATINEMMKHLGRSEGNPVIGVFQKFLTGHPKGAAGAWMMNGALQILNSGIIPGNRNADNVDKILEQFEYVLYPSKTLKTDGVRAVSITSFGFGQKGGQAIVVHPDYLYGAITEDRYNEYVAKVSAREKSAYKFFHNGMIYNKLFVSKEHAPYTDELEEDVYLDPLARVSKDKKSGSLTFNSKNIQSKDSYINANTIETAKMIENMTKEKVSNGGVGVDVELITSINVENDTFIERNFTPQEIEYCSAQPSVQSSFAGTWSAKEAVFKSLGVKSLGGGAALKDIEIVRVNKNAPAVELHGNAKKAAEEAGVTDVKVSISHDDLQAVAVAVSTKK
notes: Fatty acid synthase subunit alpha (FAS2 gene product), S. cerevisiae strain BJ2168, gene amplified from genomic DNA into NcoI-digested pET-15b(+); holds the ACP domain (residues 140-302), KR and KS domains; Serine 180 of the ACP domain is called the phosphopantetheine attachment site; No tag is named for FAS2; also called JWL03; holds the ACP domain; source: E. coli BL21, co-expressed with …
As for B1, the binding result is reported as “binds”.
